Columns and labels:
[1] = target: T1, NANP5.5-1210 Fab-LS-Th2R nanoparticles (Plasmodium falciparum (3D7/NF54-type …, UniProt Q7K740)); test: BLI; Fabs immobilised on anti-human Fab-CH1 biosensors (10 μg/mL), dipped into nanoparticles; kinetics buffer PBS pH 7.4, 0.01% BSA, 0.002% Tween-20; Octet RED96; details: both partners purified
T1 construct: 5.5 NANP repeat motifs of the PfCSP central repeat (NANP5.5); 8-aa linker; Aquifex aeolicus lumazine synthase (LS) monomer; Aquifex aeolicus lumazine synthase (LS) alone, from the co-transfected LS-pHLsec plasmid; 60-mer LS nanocage; source: HEK293F, transient co-transfection, secreted, purified (StrepTrap, SEC on Superose 6); copies: + +
T1 chain: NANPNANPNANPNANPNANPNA

NANP6 peptide = target: T2, NANP6 peptide (Plasmodium falciparum (synthetic repeat …, N-terminal biotin-aminohexanoic acid tag; unmodified C-terminus); test: SPR; Carterra LSA, CMD200M chip, 25°C; mAbs directly amine-coupled, PfCSP peptides as analytes (two-fold series, top 8 μg/ml) in 1X HBSTE; 1:1 Langmuir fit; KD includes avidity effect for antigens with multiple repeats; details: both partners purified
T2 construct: PfCSP central repeat motifs; source: synthetic peptide (CPC Scientific)
T2 chain: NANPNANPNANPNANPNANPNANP

Binder	binding result [1]	Kd (NANP6 peptide)
1210 Fab (Fab, V domains shown) VH: QVQLVESGGGVVQPGRSLRLSCAASGFTFSNYGMHWVRQAPGKGLEWVAVIWYDGSKKYYADSVKGRFTISRDNSKNTLYLQMNSLRAEDTAVYYCARVRDSSDYYGDAFDIWGQGTMVTVSS VL: DIQMTQSPSTLSASVGDRVTITCRASQSISSWLAWYQQKPGKAPKLLIYKASNLESGVPLRFSGSGSGTEFTLTISSLQPDDFATYYCQQYNNYWTFGQGTKVEIK	binds	–
Fab 2541 (Fab, V domains shown) VH: QVQLVESGGGVVQPGRSLRLSCAASGFTFSSYGMHWVRQTTGKGLEWVAIIWHDGSKKYYADSVKGRLTISRDNSKNTLYLQMNSLRVEDTALYYCARVGDYSDFKYGAFDIWGQGTMVTVSS VL: DIQMTQSPSTLSASVGDRVTITCRASQSISSWLAWYQQKPGKAPNLLIYKASTLESGVPSRFSGSGSGTEFTLTISSLQPDDFATYYCQQYNSYWTFGQGTRVEIK	binds	–
monoclonal antibody (mAb) 850 (antibody, V domains shown, VH of mAb 850 (IGHV3-33); human IgG1 heavy chain constant region (antibodies expressed as fully human IgG1); VK of mAb 850 (IGKV1-5); human Ig kappa constant region (antibodies expressed as fully human IgG1); IgG1, kappa; source: recombinantly expressed as fully human IgG1; re-expressed in CHO-3E7 cells, purified (MabSelect SuRe LX)) VH: QVQLVESGGGVVQPGRSLRLSCAASGFTFSNFGMHWIRQSPGKGLEWVAIIWYDGSNTYYADSVKGRFTISRDNSKNTLYLQMNSLRAEDTAVYYCAKVWFGESEDNYSVDVWGQGTTVTVSS VL: DIQMTQSPSTLSTSVGDRVTITCRASQSISNWLAWYQQKPGKAPKLLIYKASTLESGVPSRFSGSGSGTEFTLTISSLQPDDFATYYCQQYSSYWTFGQGTKLEIK	–	0.025 nM

Source: publication PMC9762590 (PLOS Pathogens, 2022)
